Assay: label from the status in PepcDB records
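Further: failed if final PepcDB status was selected cloned or expressed and not failed if soluble or beyond.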

Row | Sequence | protein production
1 | MVIIGSKGCAKEILTALKWDNVEETVSLFDNINTDISDAYYDFPIIKSWNELEQHLKTDSKVIIGVGGGQRREVLARKIACLGGVLTTFISQKALVGGYDNTIEPGVVILSGATITCNVSIGQGTFINKSTVISHDVRIGRYCEVSPGAKVLGRAIIGDRTEIGANAVILPDVIVGADCKIGAGAVVTRNIDSHTTVAGVPARSITKSSNNAFKLKSKIRNLLYHIRIADFRKLREYNHYVFGKRKLMFLELLSHSWMYGASFENYYELQFFKKSRTECRQYLTSSLRHELTRQVNDPCEALVLKDKVRFSEVFEDILGRRVMTFDEIKRQMHDPYSISINEVVIKPIKGQAGQGIIFPMQNFTSLRQLHDYVISTVKKPDEYLYEERIIQHSALNKLNPSSLNTLRIVTYYDESINKVDVWSVVLRIGIKARTDNFATGGIAVLVDHRGVVCQPAIIKHPSGERFHIHPVSGEKITGCIIPYYDQAIALAKQAAMRIPKVRSIGWDVAITETGPYMLEGNDNWCMTLFQLPGGEGLRHLANSVCNMFSVYE | failed
2 | MESIQSSLKHMTGNRSFEKQFTQLKEAVFRSPHVQLFLEEHPSLSPITLEQGLSKLYEYQKEQSHCAHCPGLQKCPNLMKGYQPTLYVERDSLELSYSPCPLKEEEEREKKKRSLIRSLYIPKEILEAKFDDVESEPGRSIASHRALEFALSAKPGEDGMGLYLYGKFGVGKTFLMGAIANELKDRGIDSTIVYVPDFFRELKQSIGDGTFQQKLDFVKNAQVLIFDDIGAETMTSWVRDDVLGVILQYRIMEKLPTLFTSNYDYDELEEHLAYNDKSGTELLKAKRVMERIRHYTVSVMVQGQNRREHQSLEHHHHHH | not failed
3 | TACKGDYKDAARQVRCGTLVVDETRGDPKSRRITVAVAIVKASEPKAGQPPVVYLHGGPGGSAVGGLPRMLKSKAALEYVAVDQDWIFIDQRGGGQSDPNLDCPGANLTDAGPPSDKDAQAIIACMKAFQAKGVNLSRYNAVEVAKDVQDLRKLLKLPLIDLYGGSYGTRIEAAIQTHAAEGVRAVVQDSPWPPEADWTVGGPAMVSSSIDIVMAKCAKVAECAKRYPDLKAKLAVVAERWLAGPQTINGKTYTADDLGGWLMDASYFTASVLPRDLWKIIEGDVSPVAEFVESRDYYSEGQFMTHLCKEEIPFEARAAVADGTQKDPIARLMVASMQRIHDVCAAIDVGPINKVEQAPVKTAIPTLFLAAEIDPGCPPELTRAAAKGYQGSQVVIVTNATHGVSRSSPCVRKMIRSFFQDPTKPVDRSCLPAADTPMAFMYQ | failed
4 | MTLFAEYNSPYLFAIAFVFFIGVLEMISLIFGHFLSGALDAHLDHYDALSSGPAGQALHYLNIGRVPALVVLCLLAGYFGLFGILIQHGGIMLWQAPLSNLLLVPLSIVLSVFAVHYSGKILAPWLPRDESSALREEEFIGGMAIITGHAAVAGTPCEGKFTDKFGQIHYLLLEPEKGKEFKKGDKVLIICRLSATRYLAERTFYV | failed
5 | MEISSGGSGMATRARGVVRDGTRALVLAVVGLPGALVLYVLAVVSLLLVPLGVGIVTTPWVLAGVRGFADWRRVVAAEWCGVRIPSGYRPVPVDANPWGRCFRLLSDRATWRDLIWLQVDMTAGFVTALLPAALLFYPLEGFALAAGLWRVFTDGTYIGWWYAFVPVSGQASALAAGALGVVFLVASYHLTPSLLRVHFLLTRAVLAPGQGELAERVRVLTETRRAAVDTSAAELRRIERDLHDGAQARLVAMGMDLGTIEALIEKDPAKARELLARARKSSADALTELRDLVRGIHPPVLAERGLGDAVRALALRVPIASEVNVDFDGRRAAAPVESAAYFAVSEVLTNAVKHAGADRVWIDLRHSDGMLRIAVTDNGRGGARIGTGSGLAGIERRLGTFDGVLAVSSPAGGPTMVSLEIPCELS | failed
6 | MGIRNSKTFTSTDIATYYDVSEDHYMYFWDLNQSHSLHYGYWDASTKTFREALANINRVLAEKASITAGTRVLDAGCGVGGSSIWLAKNKQANVTGITVSKKQAARANTSAAAVNPGGTAVFDVQDYTNTPYHSESFDVVWAIESVCHAANKEDFIKEAYRLLKPGGQLIMADFFIVKDGNADDQRSIDAWGHGWAVPFFEKKDAFQHMLLKAGFNTADMIDSTEHIRRSAKRLYYAFFPGWIISKLYNLVNRRTTEFSKNNVYTAYYQYKTLKKELWKYYIVHAKK | failed
7 | MGCDFAIAKDFLLFFLTKPISMKLSVIIPIYNEIQTIEKILKKITTVMPEIPKEIVMVDDGSKDGTREWLVDTFGDPEQHPVLANVNLAGKFQCFPLDQSAETNGDRQGNSFVMPKEWEVKVIFHRQNQGKGGALHTAFAAATGDVLIIQDADLEYDPEDWGPMWKLIDGGWADVVYGSRFYGNPHRVLYFHHYLGNKLITSLIDLVCNINLTDIEVCYKMFRREVLEDLRLTCNDFGFEVEFTMKVTRSPKRWRIYEVGVAYYGRTFAEGKKINWRDGVKALGYIAKFWLTNALEHHHHHH | failed
8 | MIKQVNPHFKEFLFDWNQKFQFLVGGYGSSKSYHVALKIVLKLLREKRTALVIREVYDTHRDSTFSLFDELVSDLKLDHIVRCVSSPMQIRFSNGSRIIFKGMDKPAKLKSINNISLIWIEECSEVKYEGFKELLGRLRHPTLPLHMILSTNPVGEDNWTFKHFFKDDREKRFVLDDKELYEKRIIVSNDTYYHHSTADDNLFLPESYVQQLEELKEYDPDLYRIARKGHFGVNGIRVLPQFEERPHEEVMTAISNINRPLKRVGMDFGFVESYNAVVRVAVDHEKKYLYIYWEYYKNGLTDDKTAEELKEFAETKELIKADSAEPKTIRYFQQHGFNMVGARKYQGSRLQYTKKIKRFRKIICSDRCENTIYELKPLAYATDKLGNIIEDEFTIDPHTLSAIWYALDDYEVTDLKEESKGRPQRSRPGRR | not failed
9 | LLGLGVGPGDPELITLKALRLLRAAPVVGYFVAKGKKGNAFGIIEAHLDQAQVRLPLVYPVTTEKLEPPLCYETIISDFYDTAAEQLAAHLDAGRDVAVICEGDPFFYGSYMYLHDRLATRYESEVVPGVCSMLGGAAVLGAPLVYRNQSLSVLSGVLPEEELRRRLADADAAVVMKLGRNFDKVRRVLVELGLERRALYVERATMANQRIVPLERVEPMASPYFSLIVVPGDKWQGGAGGE | failed
10 | MGHHHHHHSHSKKPYIVTIACTKGGSAKSTNAANIGAFCADHGLRTLLIDTDTQPTLSSYYSLAKTAPGGIYEFLLQRDVEPSHIVSQTSIKNLDLIQSNDPSNNVSHMLRNAPDGSIRFSHLIKSINNYDVIVIDTRGTRDITVDMSVLAADILFCPILPQILSAKEFIRGTIGMYQDLQTFESFGFKLPPLKAIANGVDNTNDVKFVMQKLHTLFANTFDESKTLLDFSIPYHVAYREAVTYALPVYRHSAVEYPVMQQLCC | failed
11 | MNWIILTIAGCFEVLFTFCMGKVKETTGTEMYLWFTGFLIATLISMLLLVKATHNLPIGTAYAVWTGIGAVGTVLVGILVFKEPAGFWRLFFIVMLIGSIIGLKMVSHG | failed
12 | MTQKEISIIHPRPSSIVAALYTLRDLNVDVAILHGPPGCSFKHARLLEEDGIHVVTTGLDENGFVFGGHDKLVQVINKSIELFNPKILGVVGTCASMIIGEEMHEAVLEANPDIPVIEVEVHAGYHNNTKGVIFALESALDAGIIDHKEFERQEYLLQKATEVEKKFGAASKEYLAPSRGDVKYKVAKRLVELLKEGKKGLVIMNAKKETGYMFADITLAVNEVAEALGKKENLVNMANIDPELGLPRVRQHAEYIMRDFKAHGVEIHEIIGGMDEYPVAGEKVSELIKEKYSDYDFAVITGVPHAVPMENIGHMELISITNGPRQVLPLKEMGHEHVMVEIDLHPKTLGVSQIVESEFGATLREVAKEA | failed
13 | LRGTHSQLRCVLNAATQVAIIATDLRGVISTFNAGAEQMLGYSSSEAVGHLTLESLHLPEELESWAQSLTQRYGKAIPVSQAMLVEEGMAGGHEAREWTLVRRDGSHLQVNMLATPVLDDQGLWIGHLAICIDITERKRVHEA | failed
14 | MIRAYKFLLRPTVRQAQALAEMLRDHCSLYNAALQERRDAWRHPSKTTVKYGGQSAQLKDIRAFDPERQGRWSFSSQQATLRRLDKAFAAFFRRVKSGETPGYPRFRGVNWFDTVDFPKDGDGCRWNSTPHDPATRVRLQGVGHVKVNQHRPVAGRVKTVSVKREGRKWFVVLTAEQDQPEPLPATGSAAGIDLGIANFLADSGGGFVPNPRHGRRAADKLQAAQQALARFPRRKAKDRTANHRRAVGKVAQLHGKVRRQRLDHAHKTALGLVRAHDFIAHEDLRIRNMSKAPAPKPDPDKPGTFLPNGAAAKAGLNKSINDAGWGVFLTILHAKAESAGREVIAVDPRDTSRTCPECGHTAKENRPTQEKFHCVACGHHAHADTVAATNVLRAGLVRRNANPA | failed
15 | MIIADNIKQFHSIRNSLIKQQKIGFVPTMGALHNGHISLIKKAKSENDVVIVSIFVNPTQFNNPNDYQTYPNQLQQDIQILASLDVDVLFNPSEKDIYPDGNLLRIEPKLEIANILEGKSRPGHFSGMLTVVLKLLQITKPNNLYLGEKDYQQVMLIKQLVKDFFINTKIIVCPTQRQPSGLPLSSRNKNLTSTDIEIANKIYEILRQDDFSNLEELTNKINSTGAKLQYIQKLNNRIFLAFYIGKVRLIDNFLKETGPSC | not failed
16 | MEAKQAAGALLTVVGVLLILYAIYSGFVNETIGSTEKFSADAAAMIVGWFAVLIGPALLFGETPAAVRKAAGR | failed
17 | SSSDIAYIYVNNKKSYLKDKKVRQALTYGLDRKKYVDTALQGYGSVANVPIAPVSWAYTEEGINKYPHDVEKAKKLLDEAGWKVGSDGVREKDGQKLKLTYYASNTGKTNDIFIPIAKESYKEIGVELNPELMDFNTMLSKVGKGDYDLAAVSTPGISDPSEVVSDYLSTNPKSDTGYSNPKVDDLIVKGIGTTDIEKRKAIYKELYKELSDDPPVILLNYRK | failed
18 | MMRCLTITIMFFMFFFLSVIQKCKSETSKSGDYIIYMGAASSDGSTDNDHVELLSSLLQRSGKTPMHRYKHGFSGFAAHLSEDEAHLIAKQPGVLSVFPDQMLQLHTTRSWDFLVQESYQRDTYFTEMNYEQESEMHEGDTIIGFLDSGIWPEAQSFNDRHMGPVPEKWKGTCMRGKKTQPDSFRCNRKLIGARYYNSSFFLDPDYETPRDFLGHGTHVASIAAGQIIANASYYGLASGIMRGGSPSSRIAMYRACSLLGCRGSSILAAFDDAIADGVDVISISMGLWPDNLLEDPLSIGSFHAVERGITVVCSVGNSGPSSQSVFNAAPWMITVAASTIDRGFESNILLGGDENRLIEGFGINIANIDKTQAYPLIHARSAKKIDANEEAARNCAPDTLDQTIVKGKIVVCDSDLDNQVIQWKSDEVKRLGGIGMVLVDDESMDLSFIDPSFLVTIIKPEDGIQIMSYINSTREPIATIMPTRSRTGHMLAPSIPSFSSRGPYLLTRSILKPDIAAPGVNILASWLVGDRNAAPEGKPPPLFNIESGTSMSCPHVSGIAARLKSRYPSWSPAAIRSAIMTTAVQMTNTGSHITTETGEKATPYDFGAGQVTIFGPSSPGLIYETNHMDYLNFLGYYGFTSDQIKKISNRIPQGFACPEQSNRGDISNINYPSISISNFNGKESRRVSRTVTNVASRLIGDEDTVYTVSIDAPEGLLVRVIPRRLHFRKIGDKLSYQVIFSSTTTILKDDAFGSITWSNGMYNVRSPFVVTSKDDNDSER | failed
19 | MLARRIVAKHVTKTTALAMLGTTIVLVILQVLFTYLGELSNLKADYSAWQAFLYVLWGAPRYLYEILPISALIGAILGLGTLASNSELIVMRSVGISLWRIVGWVIRSALVLVLLSFALSEWVVPYTNERANSVKSHQSVAALGEVRGYWSREGQRFIYVDYANSQGQLKRIQVVDFDDNYRLKSVTNAEQGQFVKDGQWLLNHSQQMAIQGQGDAVLANAAKQPFSLALQPKYVHMVTIDPEDLSFSQLVSFMNYMREYSQVPKTYQLAFWKKVASPFALITLVLVACSFIFGPLRQQSMGFRLVIALFIGLGFYYLQDFLGYASLVYNPSPAWFVLGPIVLMFVAGSYLLYRAR | failed
